Measured values: paper PMC10397247

How the values were obtained:
4H2518-bN = target: T1, 4H2518-bN; experiment: two-hybrid library CCNG1;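 also: natural log of median RNA to DNA barcode read ratio; higher means stronger binding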
T1 chain: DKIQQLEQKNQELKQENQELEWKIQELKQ

4H2585-bN = target: T2, 4H2585-bN; experiment: two-hybrid library CCNG1;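 also: natural log of median RNA to DNA barcode read ratio; higher means stronger binding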
T2 chain: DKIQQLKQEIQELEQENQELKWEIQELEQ

4H264-bN = target: T3, 4H264-bN; experiment: two-hybrid library CCNG1;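 also: natural log of median RNA to DNA barcode read ratio; higher means stronger binding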
T3 chain: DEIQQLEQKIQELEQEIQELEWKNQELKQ

4H2760-bN = target: T4, 4H2760-bN; experiment: two-hybrid library CCNG1;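 also: natural log of median RNA to DNA barcode read ratio; higher means stronger binding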
T4 chain: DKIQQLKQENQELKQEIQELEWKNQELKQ

4H2859-bN = target: T5, 4H2859-bN; experiment: two-hybrid library CCNG1;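 also: natural log of median RNA to DNA barcode read ratio; higher means stronger binding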
T5 chain: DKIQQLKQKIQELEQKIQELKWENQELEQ

4H2931-bN = target: T6, 4H2931-bN; experiment: two-hybrid library CCNG1;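 also: natural log of median RNA to DNA barcode read ratio; higher means stronger binding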
T6 chain: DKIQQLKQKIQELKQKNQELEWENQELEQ

4H3041-bN = target: T7, 4H3041-bN; experiment: two-hybrid library CCNG1
T7 chain: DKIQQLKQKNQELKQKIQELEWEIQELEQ

4H3297-bN = target: T8, 4H3297-bN; experiment: two-hybrid library CCNG1
T8 chain: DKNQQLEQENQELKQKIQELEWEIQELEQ

4H3364-bN = target: T9, 4H3364-bN; experiment: two-hybrid library CCNG1
T9 chain: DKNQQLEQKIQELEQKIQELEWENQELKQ

4H3381-bN = target: T10, 4H3381-bN; experiment: two-hybrid library CCNG1
T10 chain: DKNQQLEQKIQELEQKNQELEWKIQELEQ

4H349-bN = target: T11, 4H349-bN; experiment: two-hybrid library CCNG1
T11 chain: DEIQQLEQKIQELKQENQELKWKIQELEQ

4H56-bN = target: T12, 4H56-bN; experiment: two-hybrid library CCNG1
T12 chain: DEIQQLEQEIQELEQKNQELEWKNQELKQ

4H570-bH = target: T13, 4H570-bH; experiment: two-hybrid library CCNG1
T13 chain: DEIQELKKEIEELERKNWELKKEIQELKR

4H730-bN = target: T14, 4H730-bN; experiment: two-hybrid library CCNG1
T14 chain: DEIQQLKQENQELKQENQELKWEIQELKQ

4H796-bN = target: T15, 4H796-bN; experiment: two-hybrid library CCNG1
T15 chain: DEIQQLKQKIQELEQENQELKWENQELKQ

4H932-bN = target: T16, 4H932-bN; experiment: two-hybrid library CCNG1
T16 chain: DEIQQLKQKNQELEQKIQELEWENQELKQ

4H949-bN = target: T17, 4H949-bN; experiment: two-hybrid library CCNG1
T17 chain: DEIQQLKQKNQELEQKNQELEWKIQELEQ

O16-bP = target: T18, O16-bP; experiment: two-hybrid library CCNG1
T18 chain: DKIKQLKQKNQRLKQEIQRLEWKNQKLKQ

O2-bP = target: T19, O2-bP; experiment: two-hybrid library CCNG1
T19 chain: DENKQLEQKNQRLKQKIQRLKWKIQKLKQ

O3-bP = target: T20, O3-bP; experiment: two-hybrid library CCNG1
T20 chain: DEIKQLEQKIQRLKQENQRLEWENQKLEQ

O4-bP = target: T21, O4-bP; experiment: two-hybrid library CCNG1
T21 chain: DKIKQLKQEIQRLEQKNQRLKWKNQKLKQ

O5-bP = target: T22, O5-bP; experiment: two-hybrid library CCNG1
T22 chain: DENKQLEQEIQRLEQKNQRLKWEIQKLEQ

O6-bP = target: T23, O6-bP; experiment: two-hybrid library CCNG1
T23 chain: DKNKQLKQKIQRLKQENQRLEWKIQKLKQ

O7-bP = target: T24, O7-bP; experiment: two-hybrid library CCNG1
T24 chain: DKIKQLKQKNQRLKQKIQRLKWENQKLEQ

O8-bP = target: T25, O8-bP; experiment: two-hybrid library CCNG1
T25 chain: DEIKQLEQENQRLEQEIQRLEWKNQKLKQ

O9-bP = target: T26, O9-bP; experiment: two-hybrid library CCNG1
T26 chain: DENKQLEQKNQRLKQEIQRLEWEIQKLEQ

4H_BCR = target: T27, 4H_BCR; experiment: two-hybrid library CCmax
T27 chain: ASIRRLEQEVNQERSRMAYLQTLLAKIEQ

4H_GCN4 = experiment: two-hybrid library CCmax; conditions: mean of both orientations
4H_GCN4, sequence (chain, as listed by the source): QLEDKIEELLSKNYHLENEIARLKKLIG

AP1-AA = target: T28, AP1-AA; experiment: two-hybrid library CCmax; conditions: mean of both orientations
T28 chain: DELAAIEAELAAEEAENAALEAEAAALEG

AP2-AA = target: T29, AP2-AA; experiment: two-hybrid library CCmax; conditions: mean of both orientations
T29 chain: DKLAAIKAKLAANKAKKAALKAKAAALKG

AP3-AA = target: T30, AP3-AA; experiment: two-hybrid library CCmax; conditions: mean of both orientations
T30 chain: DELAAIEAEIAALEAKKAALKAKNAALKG

AP4-AA = target: T31, AP4-AA; experiment: two-hybrid library CCmax; conditions: mean of both orientations
T31 chain: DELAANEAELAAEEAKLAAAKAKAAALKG

AP5-AA = target: T32, AP5-AA; experiment: two-hybrid library CCmax; conditions: mean of both orientations
T32 chain: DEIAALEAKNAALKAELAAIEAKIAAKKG

AP6-AA = target: T33, AP6-AA; experiment: two-hybrid library CCmax; conditions: mean of both orientations
T33 chain: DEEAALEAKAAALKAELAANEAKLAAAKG

AP7-AA = target: T34, AP7-AA; experiment: two-hybrid library CCmax; conditions: mean of both orientations
T34 chain: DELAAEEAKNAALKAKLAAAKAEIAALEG

AP8-AA = target: T35, AP8-AA; experiment: two-hybrid library CCmax; conditions: mean of both orientations
T35 chain: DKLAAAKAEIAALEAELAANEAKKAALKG

GCN2_T = experiment: two-hybrid library CCmax
O11-AA = target: T36, O11-AA; experiment: two-hybrid library CCmax; conditions: mean of both orientations
T36 chain: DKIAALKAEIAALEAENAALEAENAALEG

O13-AA = target: T37, O13-AA; experiment: two-hybrid library CCmax; conditions: mean of both orientations
T37 chain: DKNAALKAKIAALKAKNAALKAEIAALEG

O14-AA = target: T38, O14-AA; experiment: two-hybrid library CCmax; conditions: mean of both orientations
T38 chain: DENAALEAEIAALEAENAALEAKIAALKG

P1-AA = target: T39, P1-AA; experiment: two-hybrid library CCmax; conditions: mean of both orientations
T39 chain: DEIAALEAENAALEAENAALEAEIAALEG

P10-AA = target: T40, P10-AA; experiment: two-hybrid library CCmax; conditions: mean of both orientations
T40 chain: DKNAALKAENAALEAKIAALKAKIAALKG

P11-AA = target: T41, P11-AA; experiment: two-hybrid library CCmax; conditions: mean of both orientations
T41 chain: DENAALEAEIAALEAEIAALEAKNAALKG

P12-AA = target: T42, P12-AA; experiment: two-hybrid library CCmax; conditions: mean of both orientations
T42 chain: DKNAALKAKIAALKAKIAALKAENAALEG

P2-AA = target: T43, P2-AA; experiment: two-hybrid library CCmax; conditions: mean of both orientations
T43 chain: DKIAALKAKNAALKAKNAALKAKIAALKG

P3-AA = target: T44, P3-AA; experiment: two-hybrid library CCmax; conditions: mean of both orientations
T44 chain: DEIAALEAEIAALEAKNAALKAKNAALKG

P4-AA = target: T45, P4-AA; experiment: two-hybrid library CCmax; conditions: mean of both orientations
T45 chain: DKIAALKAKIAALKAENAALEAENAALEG

P7-AA = target: T46, P7-AA; experiment: two-hybrid library CCmax; conditions: mean of both orientations
T46 chain: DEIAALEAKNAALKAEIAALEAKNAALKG

P8-AA = target: T47, P8-AA; experiment: two-hybrid library CCmax; conditions: mean of both orientations
T47 chain: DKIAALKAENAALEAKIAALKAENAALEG

P9-AA = target: T48, P9-AA; experiment: two-hybrid library CCmax; conditions: mean of both orientations
T48 chain: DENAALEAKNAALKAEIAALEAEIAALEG

zCON9_A = target: T49, zCON9_A; experiment: two-hybrid library CCmax
T49 chain: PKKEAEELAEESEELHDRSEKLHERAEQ

zCON9_B = target: T50, zCON9_B; experiment: two-hybrid library CCmax; conditions: mean of both orientations
T50 chain: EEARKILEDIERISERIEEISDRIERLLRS

zCON9_D = target: T51, zCON9_D; experiment: two-hybrid library CCmax; conditions: mean of both orientations
T51 chain: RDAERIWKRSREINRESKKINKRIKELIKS

DKIQQLEQKNQELKQENQELEWKIQELKQ [4H2518-bN]
interaction score (4H2518-bN): -0.0161 | interaction score (4H2585-bN): 0.403 | interaction score (4H264-bN): 1.11 | interaction score (4H2760-bN): 0.227 | interaction score (4H2859-bN): -0.834 | interaction score (4H2931-bN): -0.539 | interaction score (4H3041-bN): -0.522 | interaction score (4H3297-bN): -0.555 | interaction score (4H3364-bN): -0.536 | interaction score (4H3381-bN): -0.272 | interaction score (4H349-bN): -0.274 | interaction score (4H56-bN): -0.0872 | interaction score (4H570-bH): -2.15 | interaction score (4H730-bN): 1.02 | interaction score (4H796-bN): 0.473 | interaction score (4H932-bN): -0.482 | interaction score (4H949-bN): -0.152

DKIKQLKQKNQRLKQEIQRLEWKNQKLKQ [O16-bP]
interaction score (O16-bP): -0.576 | interaction score (O2-bP): -1.5 | interaction score (O3-bP): -1.06 | interaction score (O4-bP): -1.21 | interaction score (O5-bP): -0.672 | interaction score (O6-bP): 0.641 | interaction score (O7-bP): -1.1 | interaction score (O8-bP): 1.44 | interaction score (O9-bP): -1.13

ASIRRLEQEVNQERSRMAYLQTLLAKIEQ [4H_BCR]
interaction score (4H_BCR): -1.84 | interaction score (4H_GCN4): -1.7 | interaction score (AP1-AA): -1.92 | interaction score (AP2-AA): -2.54 | interaction score (AP3-AA): -1.8 | interaction score (AP4-AA): -1.51 | interaction score (AP5-AA): -1.5 | interaction score (AP6-AA): -1.75 | interaction score (AP7-AA): -1.69 | interaction score (AP8-AA): -1.28 | interaction score (GCN2_T): -2.01 | interaction score (O11-AA): -1.66 | interaction score (O13-AA): -1.72 | interaction score (O14-AA): -0.776 | interaction score (P1-AA): -1.71 | interaction score (P10-AA): -1.67 | interaction score (P11-AA): -1.68 | interaction score (P12-AA): -1.94 | interaction score (P2-AA): -2.08 | interaction score (P3-AA): -2.12 | interaction score (P4-AA): -1.94 | interaction score (P7-AA): -1.28 | interaction score (P8-AA): -1.85 | interaction score (P9-AA): -1.88 | interaction score (zCON9_A): -2.12 | interaction score (zCON9_B): -0.916 | interaction score (zCON9_D): -1.5
